Experimental data published in the supplement of paper PMC11246515.
± gives the standard deviation of the averaged measurements.

Assay: total protein half-life in vivo (active degradation + dilution); higher = more stable protein
[1] = E. coli NCM3722 delta-clpP delta-lon delta-hslV, growth: N-lim chemostat, doubling time 6 h
[2] = E. coli NCM3722 delta-clpP, growth: N-lim chemostat, doubling time 6 h
[3] = E. coli NCM3722 delta-lon, growth: N-lim chemostat, doubling time 6 h
[4] = E. coli NCM3722 delta-smpB, growth: N-lim chemostat, doubling time 6 h
[5] = wild type E. coli NCM3722, growth: C-lim chemostat, doubling time 3 h
[6] = wild type E. coli NCM3722, growth: C-lim chemostat, doubling time 6 h
[7] = wild type E. coli NCM3722, growth: C-lim chemostat, doubling time 12 h
[8] = wild type E. coli NCM3722, growth: N-lim chemostat, doubling time 6 h
[9] = wild type E. coli NCM3722, growth: N-lim chemostat, doubling time 12 h
[10] = wild type E. coli NCM3722, growth: P-lim chemostat, doubling time 6 h
[11] = wild type E. coli NCM3722, growth: P-lim chemostat, doubling time 12 h
[12] = E. coli NCM3722 delta-hslV, growth: N-lim chemostat, doubling time 6 h

Sequence | total protein half-life in vivo [1] [h] | total protein half-life in vivo [2] [h] | total protein half-life in vivo [3] [h] | total protein half-life in vivo [4] [h] | total protein half-life in vivo [5] [h] | total protein half-life in vivo [6] [h] | total protein half-life in vivo [7] [h] | total protein half-life in vivo [8] [h] | total protein half-life in vivo [9] [h] | total protein half-life in vivo [10] [h] | total protein half-life in vivo [11] [h] | total protein half-life in vivo [12] [h]
MMIKTRFSRWLTFFTFAAAVALALPAKANTWPLPPAGSRLVGENKFHVVENDGGSLEAIAKKYNVGFLALLQANPGVDPYVPRAGSVLTIPLQTLLPDAPREGIVINIAELRLYYYPPGKNSVTVYPIGIGQLGGDTLTPTMVTTVSDKRANPTWTPTANIRARYKAQGIELPAVVPAGLDNPMGHHAIRLAAYGGVYLLHGTNADFGIGMRVSSGCIRLRDDDIKTLFSQVTPGTKVNIINTPIKVSAEPNGARLVEVHQPLSEKIDDDPQLLPITLNSAMQSFKDAAQTDAEVMQHVMDVRSGMPVDVRRHQVSPQTL | 5.73 | 4.84 | 6.23 ± 1.4 | 5.56 | 1.51 ± 0.55 | 2.85 ± 0.33 | 4.13 ± 0.68 | 6.17 | 10.5 | 5.17 | 3.45 | 
MMINVQTVAVIGSGTMGAGIAEVAASHGHQVLLYDISAEALTRAIDGIHARLNSRVTRGKLTAETCERTLKRLIPVTDIHALAAADLVIEAASERLEVKKALFAQLAEVCPPQTLLTTNTSSISITAIAAEIKNPERVAGLHFFNPAPVMKLVEVVSGLATAAEVVEQLCELTLSWGKQPVRCHSTPGFIVNRVARPYYSEAWRALEEQVAAPEVIDAALRDGAGFPMGPLELTDLIGQDVNFAVTCSVFNAFWQERRFLPSLVQQELVIGGRLGKKSGLGVYDWRAEREAVVGLEAVSDSFSPMKVEKKSDGVTEIDDVLLIETQGETAQALAIRLARPVVVIDKMAGKVVTIAAAAVNPDSATRKAIYYLQQQGKTVLQIADYPGMLIWRTVAMIINEALDALQKGVASEQDIDTAMRLGVNYPYGPLAWGAQLGWQRILRLLENLQHHYGEERYRPCSLLRQRALLESGYES | > 8 |  |  |  |  |  |  |  |  |  |  | 
MMKKFIAPLLALLVSGCQIDPYTHAPTLTSTDWYDVGMEDAISGSAIKDDDAFSDSQADRGLYLKGYAEGQKKTCQTDFTYARGLSGKSFPASCNNVENASQLHEVWQKGADENASTIRLN | 3.02 ± 0.51 | 3.75 ± 0.11 |  | 3.95 ± 0.7 | 1.57 | 5.17 ± 0.12 | 8.56 ± 0.22 | 3.97 | 6.57 ± 0.068 | 4.95 | 10.9 | 4.8
MMKTVNELIKDINSLTSHLHEKDFLLTWEQTPDELKQVLDVAAALKALRAENISTKVFNSGLGISVFRDNSTRTRFSYASALNLLGLAQQDLDEGKSQIAHGETVRETANMISFCADAIGIRDDMYLGAGNAYMREVGAALDDGYKQGVLPQRPALVNLQCDIDHPTQSMADLAWLREHFGSLENLKGKKIAMTWAYSPSYGKPLSVPQGIIGLMTRFGMDVTLAHPEGYDLIPDVVEVAKNNAKASGGSFRQVTSMEEAFKDADIVYPKSWAPYKVMEERTELLRANDHEGLKALEKQCLAQNAQHKDWHCTEEMMELTRDGEALYMHCLPADISGVSCKEGEVTEGVFEKYRIATYKEASWKPYIIAAMILSRKYAKPGALLEQLLKEAQERVK | 4.89 ± 0.5 | 2.63 | 3.03 | 2.82 ± 0.23 | 2.94 ± 0.24 | 4.89 ± 0.37 | 9.18 ± 0.49 | 2.53 | 3.87 ± 0.06 |  |  | 2.5 ± 0.084
MMLSATQPLSEKLPAHGCRHVAIIMDGNGRWAKKQGKIRAFGHKAGAKSVRRAVSFAANNGIEALTLYAFSSENWNRPAQEVSALMELFVWALDSEVKSLHRHNVRLRIIGDTSRFNSRLQERIRKSEALTAGNTGLTLNIAANYGGRWDIVQGVRQLAEKVQQGNLQPDQIDEEMLNQHVCMHELAPVDLVIRTGGEHRISNFLLWQIAYAELYFTDVLWPDFDEQDFEGALNAFANRERRFGGTEPGDETA | 4.31 ± 0.33 | 4.73 ± 0.53 | 3.15 ± 0.76 | 3.01 ± 0.68 | 2.21 ± 0.11 | 3.73 ± 0.41 | 5.97 | 3.18 ± 0.091 | 6.55 | 3.94 ± 0.13 | 5.49 ± 2.1 | 2.9 ± 0.15
MMLSEETSAVRPQKQTRFNGAKLVWMLKGSPLTVTSAVIIVLMLLMMIFSPWLATHDPNAIDLTARLLPPSAAHWFGTDEVGRDLFSRVLVGSQQSILAGLVVVAIAGMIGSLLGCLSGVLGGRADAIIMRIMDIMLSIPSLVLTMALAAALGPSLFNAMLAIAIVRIPFYVRLARGQALVVRQYTYVQAAKTFGASRWHLINWHILRNSLPPLIVQASLDIGSAILMAATLGFIGLGAQQPSAEWGAMVANGRNYVLDQWWYCAFPGAAILLTAVGFNLFGDGIRDLLDPKAGGKQS |  |  |  | 4.22 ± 0.1 |  |  |  | 4.15 | 6.94 |  |  | 
